Measurements: paper PMC4505066, “Insights into the Recruitment of Class IIa Histone Deacetylases (HDACs) to the SMRT/NCoR Transcriptional Repression Complex” (The Journal of Biological Chemistry, 2015)

B1: wild type GSI motif peptide (…), SMRT amino acids 1450-1469 with an amino-terminal cysteine [modified: BODIPY-TMR coupled to the N-terminal cysteine; BODIPY-TMR coupled to the N-terminal cysteine] [not stated] (parent)
chain 1: CPRPLKEGSITQGTPLKYDTG
chain 2: TKPRFTTGLVYDTLMLKHQCTCGSSSSHPEHAGRIQSIWSRLQETGLRGKCECIRGRKATLEELQTVHSEAHTLLYGTNPLNRQKLDSKKLLGSLASVFVRLPCGGVGVDSDTIWNEVHSAGAARLAVGCVVELVFKVATGELKNGFAVVRPPGHHAEESTPMGFCYFNSVAVAAKLLQQRLSVSKILIVDWDVHHGNGTQQAFYSDPSVLYMSLHRYDDGNFFPGSGAPDEVGTGPGVGFNVNMAFTGGLDPPMGDAEYLAAFRTVVMPIASEFAPDVVLVSSGFDAVEGHPTPLGGYNLSARCFGYLTKQLMGLAGGRIVLALEGGHDLTAICDASEACVSALLGNELDPLPEKVLQQRPNANAVRSMEKVMEIHSKYWRCLQRTTSTAGRSLIEAQTCENEEAETVT

Variants of: B1
Assay: fluorescence anisotropy
Conditions: with HDAC4 catalytic domain

Variant | Kd
chain 1 CPRPLKEGAITQGTPLKYDTG | > 1000 µM
chain 1 CPRPLKEGTITQGTPLKYDTG | > 1000 µM
chain 1 CPRPLKEGSITQGSPLKYDTG | > 1000 µM
chain 1 CPRPLKEASITQGTPLKYDTG | > 1000 µM
chain 1 CPRPLKEGSDTQGTPLKYDTG | > 1000 µM
chain 1 CPRPLKEGSATQGTPLKYDTG | > 1000 µM
chain 1 CPRPLKEGSITQATPLKYDTG | > 1000 µM
